Measured values from the supplement of paper PMC9170038.

System: MS2 coat protein
Assay: apparent KD of MS2 coat protein; higher = weaker reporter binding
Conditions: Eterna round: R107
Method in brief: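 On-chip transcription from Illumina sequencing clusters produced the designed RNA switches. These were titrated with SNAP-549-labelled MS2 coat protein (twofold steps, 0.7 or 1.5 nM to 3 µM) in 100 mM Tris-HCl pH 7.5, 80 mM KCl, 4 mM MgCl2, with or without constant ligand. The apparent KD given is the per-design median of normalised cluster binding-curve fits.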

[1] = input ligand: theophylline 20 uM
[2] = input ligand: theophylline 2 mM
[3] = input ligand: tryptophan 2.4 mM

Sequence	apparent KD of MS2 coat protein (input ligand: arginine 13.2 mM) [nM]	apparent KD of MS2 coat protein (input ligand: none) [nM]	apparent KD of MS2 coat protein [1] [nM]	apparent KD of MS2 coat protein [2] [nM]	apparent KD of MS2 coat protein [3] [nM]
GAGGGUGAAUCUCUAGUCCGUUUGACGGAUACCAGCGAGAGGUAUCGCCCUUGGCAGCCGACGACAUGAGGAUCACCCAUGUUAA [#07 Exclusion-TheophyllineA]	22.2	40.6	42.6	22	29.3
UAACAUGAGGAUCACCCAUGUAUACUAAGUCGAGGACCGGUACGGCCGCCACUCGAAAUUGAAGAAUUGGCGGUAAAUGUAAGUA [JR_ExcTryptoA_Sub019]	12.6	–	15.9	14.3	–
UGGGUAGAAUAGAUAGAUAGAUAAACUGAAGGAGCGAGAAUAAACUCAGGUAGGUCGCAGACAUGAGGAUCACCCAUGUAGAUGG [Same State Arginine A GF15]	91.1	98.8	87.2	163	88.9
AUUAUCGUAGGUUAAAGUUUAGAAACUGAAGGAGCGUGGUAUUACACAGGUAGGUCGCAGAUUUUACAUGAGGAUCACCCAUGUU [JR_ExcArginiA_Sub010]	21.3	22.4	26.3	25.1	21.5
CCUGCGUUUCUUUUCUUUCGCAGGAAUGAUACCAGUAGGGAAACCUACCCUUGGCAGCAUGGGUAACAUGAGGAUCACCCAUGUU [SSThA NP+V+V2 #5 Same Structure]	93.2	–	392	–	343
CAUGAUAAGUUGGAUACCAGCAUAUGGAACAACAUGAGGAUCACCCAUGUCAAAUGACAUUGCCCUUGGCAGCCACCUACUGUCA [theeternabot_sameState_MS2_Theo_B_5]	21.2	–	19.1	–	17.9
UGUUUGGUGCGCGAGUGUUGGAUAAUUGAUACCAGUGUAGAAGUGCGCCCUUGGCAGCGAAUCCUAACAUGAGGAUCACCCAUGU [5.X]	49.1	–	52.3	–	39
GACAUUAUCUGAAGGAGCGAGGUAAAUAGGGAUGAGCAUACAUGAGGAUCACCCAUGUGGCCUCAGGUAGGUCGCAGAUGAGAUU [Exclusion Arginine B GF26]	41.1	253	212	453	256
GAUCCACAUGAGGAUCACCCAUGUGAGGAUACCAGUACCAGAUCCUACCCUUGGCAGCCUAACCUUCAUUCAACACGAAUAAGAA [theeternabot_sameState_MS2_Theo_A_20]	13.8	–	16.7	–	15
UUUUAAGGGAUCGGAGCUGGUAGCAGAGAUACCAGAGUAGUAAUGCUCCCUUGGCAGCUCAGUACAUGAGGAUCACCCAUGUUUU [Exclusion Theophylline A GF26]	16.3	17.6	21	25.3	17.9
CUAUAUAUAAGAAGGAGCGACAUGAGGAUCACCCAUGUCUACCACGUCGAAAGACGCUCAUGUCAGGUAGGUCGCUUAUAUAUAG [Astros-Eli-mod1]	108	122	155	139	93.9
AUCCACAGCCGAAGGAGCGCAGUAGGAUGACAUGAGGAUCACCCAUGUGUGUGAUGUGGAUUGCAGGUAGGUCGCGGAGUGGAUU [Exclusion - Arginine B (Freestyle 9)]	165	54.5	82	60.1	46.4
UUAACGAGCUGAAGGAGCGCUCCUCAACAACAUGAGGAUCACCCAUGUACACAUAAUAGGGAGCAGGUAGGUCGCAGCAGGAUGG [ss-argB-?]	17.4	15.3	23.4	17	15
AUGGAGACCUCGGCCGCCACUCUCCAUGAGGAUCUCCCAUGUAACAUGAGGAUCACCCAUGUGCUGAGGACCGGGAGGUCCUGAA [Same State Tryptophan B GF 18]	9.2	–	15.8	12.5	–
ACAUGAGGAUCACCCAUGUAAUAAUCAGAAGGAGCGUGGAAUAACACAGGUAGGUCGCUGAUGUUUGGUUAAAAUUAUUCGUGAA [JR_ExcArginiA_Sub001]	12.2	13.1	16.6	14	14
AGGACAUCGAGAAGGAGCGCAUCCAAACCACACAUGAGGAUCACCCAUGUAUAAAUAUGCAUGCAGGUAGGUCGCUCGGCGUCUU [Leanerin]	57.5	99	121	85.7	87.4
ACCUUACAUGAGGAUCACCCAUGUCGUGAUACCAGAAACCACGUAUUCCCUUGGCAGCACACCCGUGAUGAGAUUGUCGGUUUUG [theeternabot_sameState_MS2_Theo_A_43]	42.2	–	86.3	–	49.2
UUAGAUAUGACAGAUACCAGCGUGUUGUUGAACAUGAGGAUCACCCAUGUAGUGAUCGAGCGCCCUUGGCAGCUGGUGUGUUUGG [7.Q]	77.6	–	174	–	225
UGGGUACAUGAGGAUCACCCAUGUACUGAAGGAGCGAGAAUUAUCUCAGGUAGGUCGCAGACAUGAGGAUCACCCAUGUAGUGGG [Exclusion Arginine A GF 13]	15	18	22.7	20	17.7

Sequence	apparent KD of MS2 coat protein (input ligand: arginine 13.2 mM) [nM]	apparent KD of MS2 coat protein (input ligand: none) [nM]	apparent KD of MS2 coat protein [1] [nM]	apparent KD of MS2 coat protein [2] [nM]	apparent KD of MS2 coat protein [3] [nM]
GAAUUUAUAUGAAGGAGCGUCGAAAAUGGGUAAACAUGAGGAUCACCCAUGUAAAGGGAACGACAGGUAGGUCGCAUAUGGAUUC [AstromonsSSArgB#26]	114	175	196	219	197
UUAUCUAUAUUCGAUACCAGUACCCUGGCCGCAAAUCCUAACAUGAGGAUCACCCAUGUGUACCCUUGGCAGCGGGUAUGGGUUU [XTheo B #29]	21.5	–	35.1	–	24.2
ACAUGAGGAUCACCCAUGUGGCGACUUGAUACCAGACCCGCACUAGUCCCUUGGCAGCAACUACGUGAGGGACACCCAUGUGAAG	17.6	25.8	41.6	38.2	21.6
CUCCGAGGCUAUACUAUCCGCCUCAGUGAUACCAGAAUACCUAUAUUCCCUUGGCAGCAUCACAUGAGGAUCACCCAUGUGCCAU [SSTheo A #14]	13.4	–	16.3	–	12.2
ACAUUUAACUGAAGGAGCGUGAUAUGUACAUGAGGAUCACCCAUGUCUUUCAUGUGAUUUUCACAGGUAGGUCGCAGACUAAUGA [JR_ExcArginiB_Sub003]	11.8	11.5	14.2	13	11.6
GGUGGCGUGACGGAUACCAGCCACCACCGAUAGACCACAUGAGGAUCACCCAUGUUGGGUGGCCCUUGGCAGCUGUCGUGCGGCG [#1 Same State - Theophylline B Attempt #17 (HarryS)]	82	–	409	–	220
UAUACAUGAGGAUCACCCAUGUGCCAUGAUACCAGACAUGAAAAUGUCCCUUGGCAGCAUGGGAGAUGUAUAGCGGGAAACCCGA [Turany]	22.4	38.9	198	677	42.6
ACACAUGAGGAUCACCCAUGUUGAGGAACACGAGGACCGGUACGGCCGCCACUCGACACAUGAGGAUCACCCAUGUGAUCACCCA [Same State Tryptophan A 2]	49.7	–	129	173	–
GAUAUGGAAACAUGUCAGAUCCUUACCGGUCGAGGACCGGUACGGCCGCCACUCGAAAACGAUGUACAUGAGGAUCACCCAUGUA [Ex Tryptophan A 19]	13.7	14	16.2	14.7	21.6
AAGGGUGAGUCUCUAAUCCGUUUGACGGAUACCAGCGAGAGAUAUCGCCCUUGGCAGCCGACGACAUGAGGAUCACCCAUGUAAA [Exclusion - Theophylline A]	17	–	22	–	14
GCUGUGAAGUCGGCCGCCACUGGUUAGUUUAACCUCAUGUAACAUGAGGAUCACCCAUGUAAUGUCAGGACCGGGACAACAGCAA [JR_ExcTryptoB_Sub016]	131	145	236	289	357
UGAUGGUUCGGAAGGAGCGUGUAAGAACAAGAACAUGAGGAUCACCCAUGUAUUAAUUUAACACAGGUAGGUCGCCGGGUUAUUG [11.J]	20.9	16.3	23.1	22.2	14.4
UAGUUGUAGUCGGCCGCCACUGUGAGCAUGGUUAACAUGAGGAUCACCCAUGUCCCGUACUAUAACAGGACCGGGACGUAGUUGC [#10 Same State - Tryptophan B]	31.1	–	79.4	134	–
UUGGUUAUGCGAAGGAGCGGGAAAUAUAUAUAUAUAAUCCUAACAUGAGGAUCACCCAUGUCCCAGGUAGGUCGCGCAUAGUUGG [12.I]	45.2	69.5	80.3	83.3	69.1
GCUUGCUUGUAAGGUUCUGUCCGGCGUCGUCGAGGACCGGUACGGCCGCCACUCGCGCGUUUACAUGAGGAUCACCCAUGUCAUG [theeternabot_exclusion_MS2_Trp_A_49]	34.3	40.6	38.7	35	47.5
AUUUUCAUGGUCAUAUAUAUAUCUUCAGAUACCAGACUAUAUUAAGUCCCUUGGCAGCUGUUACAUGAGGAUCACCCAUGUUAUA [JR_ExcTheophyA_Sub013]	40.1	–	65.3	–	78
AUUACAUGAGCAUCAGCACAUGAGGAUCACCGAGGACCGGUACGGCCGCCACUCGACACAUGAGGAUCACCCAUGUGUUGUUGUU [Exclusion Tryptophan A 3]	24.6	–	345	281	–
CAAGCACCAACCGAUACCAGCUUAGUAGUAUGCUCAUUAAACAUGAGGAUCACCCAUGUGAGCCCUUGGCAGCGGAUUUCCCUGC [theeternabot_exclusion_MS2_Theo_B_12]	14.5	–	18.3	–	13.5
CGUAUGUAGACGGCCGCCACUGGAACCUGAGGAUCACCCAGGUACAGGGUGGGUAACUCGAGAGUCAGGACCGGGUCUACAUACA [Tryp B Ex t3]	19.4	42	65.1	64.3	38.6
